From patent publication US8688427B2, “Enzyme catalysts for diels-alder reactions” (University of Washington, priority 2008, dated 2014)

How the values were obtained:
Assay type in all cases: biochemical
[1] = Diels-Alder activity assay with purified protein, LC-MSMS product detection; conditions: 0.1 mM diene, 3 mM dienophile, PBS, 298K, 20 μM protein
Experimental: The observed velocity for each mutant was normalized by the velocity of DA—20—00 in order to determine the effective rate enhancement conferred by each mutation. The reactions were done at 1 mM diene, and 10 mM dienophile, PBS, 298K, and 100 μM protein.
Mutations showing enhanced activity on DA—20—04 were sequenced, grown large scale, and assayed. The assay was done at 0.1 mM dieine, 3 mM dienophile, PBS, 298K, and 20 μM protein.
The Diels-Alder reactions were performed in PBS, at 25° C., with 4% DMSO. The DMSO came from the diene, for which the stock solution (100 mM) was made in DMSO and always diluted such that the final reaction would contain 4% DMSO. After incubation of the desired amount of diene and dienophile in the presence or absence of the protein, time points were taken of the reaction (5 μL) and quenched in a solution of 80:20 acetonitrile:water with 0.1% formic acid and 1 mM Benzoic Acid (95 μL). This reaction was incubated for 5 minutes and then the precipitated protein filtered using a Millipore multiscreen solvinert filter plate (Product Number: MSRLN0450). 20 μL of the filtered quench solution was then injected and analyzed using a liquid chromatography-tandem mass spectroscopy (LC-MSMS) assay.
A total of 43 variants were assayed using the standard activity assay. The observed activities are described in Table 2. In Table 2, the Expression column provides the number of times the mutant was expressed; the Observed column reports the raw signal level out of the mass-spec for the product (the Observed column is not normalized nor background corrected); the Concentration column provides the concentration of the protein after large-scale expression. […]

[2] = Production run and effects of knocking out the catalytic residues; conditions: higher enzyme concentrations: 1 mM diene, 50 mM dienophile, 200 μM protein, PBS, 298K
Experimental: The reaction was carried out in 1 mM diene, 50 mM dienophile, 200 μM enzyme, in PBS at 298K. The proteins assayed are DA—20—10 (υ), Y121F (▴), Q195E (x), and tela scaffold (*), uncatalyzed (λ).
To determine whether the observed activity depends on the designed active site, we investigated the contributions of the designed catalytic residues in DA—20—10 to catalysis. Glutamine 195 was mutated into a glutamate (Q195E) and tyrosine 121 was mutated into a phenylalanine (Y121F). We had originally incorporated a glutamine rather than a glutamate at this position, despite the fact that the carboxylate should make a stronger hydrogen bond with the diene carbamate. This hydrogen bond should increase the energy of the diene HOMO (and thus decrease the energy gap with the dienophile LUMO), and more greatly stabilize the transition state. However, we were concerned that the substantial free energy cost of desolvating the carboxylate would considerably reduce binding affinity for the diene. […] The Y121F mutation decreases catalytic activity by 27-fold, consistent with the removal of a hydrogen bond that contributes to dienophile binding, stabilizes the dienophile LUMO, and is enhanced in the transition state.
Timepoints were taken and measured as previously described over a period of 60 hours.

[3] = Stereospecificity, chiral column LC-MSMS
Experimental: The transition states which lead to the four possible ortho-stereoisomers are shown above the reaction chromatograms. Background reaction: 2 mM diene and 70 mM dieneophile in a PBS solution for 24 hours at 298 K. DA—20—10 reaction: 50 μM protein, 0.5 mM diene, and 10 mM dieneophile in a PBS solution for 48 hours at 298K. The four stereoisomers were separated using liquid chromatography (11), and samples injected onto a Daicel AD-H column.
A liquid chromatography-tandem mass spectroscopy with a chiral column was used to detect each of the four experimentally observed stereoismers. The chiral column used in this work was the same as in (10), so it was predicted that the product peaks would come out in the same order. To validate that the endo and exo products came out as expected each was synthesized, and run either separately or together to identify the endo and exo peaks. The peaks observed come out in the same order and same time as reported in Cannizzaro et al. (10).
In order to quantify the stereospecificity of DA—20—10, a reaction with 2 mM diene, 70 mM dieneophile, PBS, pH 7.4, in the presence or absence of 80 μM protein was run for 24 hr at 298K. […] The reactions were shaken for 5 minutes, centrifuged for 5 minutes, after which the organic layer was removed and analyzed with a LC-MSMS assay. […]

B1: DA_20_10: DA_20_04 with A272N, Q149R, A173C (protein)
chain: MEIPVIEPLFTKVTEDIPGATGPVFDKNGDFYIVAPYVEVNGKPAGEILRIDLKTGKKTVICKPEVNGYGGIPIGCQCDRDANQLFVADMRLGLLVVQTDGTFEEIAKKDSEGRRMQGCAYCAFDYEGNLWITAPAGEVAPADFTISLREKFGSIYCFTTDGQMIQVDTAFQCPAGIAVRHMNDGRPYQLIVAEQPTKKLWSYDIKGPAKIENKKVWGHIPGTHKGGAAGMDFDEDNNLLVANWGSSHIEVFGPDGGQPKMRIRCPFEKPANLHFKPQTKTIFVTEHENNAVWKFEWQRNGKKQYCETLKFGIFGSLEHHHHHH
modifications: Enzyme catalyst for Diels-Alder reaction
notes: DA_20_04 with A272N, Q149R, A173C
With B1 the “product formed per hour” value [1] was 154.9 nM of product/hour, the “diene substrate converted to product” value [2] was “more than 80%” and the “share of the expected 3R,4S product” value [3] was over 97%. For the same molecule, the stereospecificity ([3]; 2 mM diene, 70 mM dienophile, PBS, pH 7.4, 80 μM protein, 24 hr, 298K) was “greater than 97 % ee”.
